Data: patent KR20170108690A (dated 2017)

Target: T1, BSA (UniProt P02769 25-607)
T1 construct: also called 음성 대조군; 대조군
Experiment: ELISA of clone supernatant on coated antigen

T1 sequence (P02769 25-607 limits assumed): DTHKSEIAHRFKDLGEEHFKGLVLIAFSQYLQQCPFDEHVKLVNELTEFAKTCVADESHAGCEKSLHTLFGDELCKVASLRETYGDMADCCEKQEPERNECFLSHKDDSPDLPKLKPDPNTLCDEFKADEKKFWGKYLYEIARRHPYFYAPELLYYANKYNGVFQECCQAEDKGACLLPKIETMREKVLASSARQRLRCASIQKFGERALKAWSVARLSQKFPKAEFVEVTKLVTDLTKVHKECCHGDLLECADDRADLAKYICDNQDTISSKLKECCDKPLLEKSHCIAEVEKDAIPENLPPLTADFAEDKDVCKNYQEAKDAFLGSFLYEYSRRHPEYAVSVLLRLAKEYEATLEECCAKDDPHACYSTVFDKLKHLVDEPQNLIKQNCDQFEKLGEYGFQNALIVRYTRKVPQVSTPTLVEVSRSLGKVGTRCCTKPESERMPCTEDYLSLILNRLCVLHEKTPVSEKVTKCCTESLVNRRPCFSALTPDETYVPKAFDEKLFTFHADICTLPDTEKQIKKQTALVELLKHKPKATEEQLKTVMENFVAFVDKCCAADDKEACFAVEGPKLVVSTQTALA

B1: NA-A4 항체 클론 (Fab 형태, 파지 디스플레이 클론의 IPTG 유도 상층액) (Fab, V domains shown)
VH: EVQLVESGGGLVQPGGSLRLSCAASGFTFNSYWMSWVRQAPGKGLEWVSWITPTSGTTYYADSVKGRFTISRDNSKNTLYLQMNSLRAEDTAVYYCARVEDWDIGYYGMDYWGQGTLVTVSS
VL: DIQMTQSPSSLSASVGDRVTITCRASQSVSNWLAWYQQKPGKAPKLLIYWASSLESGVPSRFSGSGSGTDFTLTISSLQPEDFATYYCQQYYNHPYTFGQGTKVEIK
notes: also called Influenza NA-A4 antibody; 인플루엔자 NA-A4 항체
binding result: no binding
